Test results reported in the supplement of paper PMC10567573.
± gives the standard deviation.

Experiment: protein stability index of a GFP-peptide fusion (GPS, HEK-293T) (PSI 1-6); higher = more stable
[1] = treatment: DMSO, c terminus: a fixed tail appended
[2] = treatment: MLN4924 1 uM, 8 h, c terminus: a fixed tail appended
[3] = treatment: DMSO, c terminus: native
[4] = treatment: MLN4924 1 uM, 8 h, c terminus: native
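Further: 24-mer peptide tiles fused after GFP, lentivirally expressed, FACS-sorted into six equal bins by GFP/DsRed ratio, decoded by Illumina sequencing, PSI is the read-weighted mean bin number.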

Row | Sequence | protein stability index [1] | protein stability index [2] | protein stability index [3] | protein stability index [4]
1 | AADGPTVCCNPYHFSRLCGPESPP [SMAD6] | 3.65 ± 0.11 | 3.76 ± 0.24 | – | –
2 | AAIAFTLALFSHLVNHVNIRLQAE [SMG5] | 3.22 ± 0.4 | 3.46 ± 0.37 | – | –
3 | AANPRPDALMKEQLVEMTGLSPRV [ISL2] | 4.17 ± 0.27 | 4.19 ± 0.33 | – | –
4 | AAPEGKRSLANGPNAGEQPGQVAG [EID1] | 5.44 ± 0.38 | 5.22 ± 0.16 | – | –
5 | AAPWPMAFPYQYPPPPHPYNPHPG [DVL3] | 2.62 ± 0.26 | 2.85 ± 0.21 | – | –
6 | AAQNGDESSTRLLLEKNASVNEVD [RIPK4] | 5.37 ± 0.24 | 5.48 ± 0.27 | – | –
7 | ACPVCSKMVPRYDLNRHLDEMCAN [FAN1] | 2.6 ± 0.49 | 2.27 ± 0.17 | – | –
8 | ADEDDDRDVALQIHFTLIQAFCCE [GADD45A] | 2.28 ± 0.35 | 2.36 ± 0.085 | – | –
9 | ADILAGREDNSGSDVLIGDILVLL [SLC35F2] | 2.48 ± 0.26 | 2.43 ± 0.18 | – | –
10 | AEALGKLLQQNKSIQSLTLEWNSL [LRRC45] | 2.13 ± 0.16 | 2.25 ± 0.32 | – | –
11 | AECFRIFDRNADGYIDPEELAEIF [TNNC2] | 5.32 ± 0.21 | 5.09 ± 0.15 | – | –
12 | AEDGGAYLATAKVLITVEDVNDNS [PCDHGA10] | 4.4 ± 0.21 | 4.36 ± 0.29 | – | –
13 | AEDWFFSKTEELNREVATNSELVQ [KRT17] | 4.87 ± 0.2 | 4.84 ± 0.07 | – | –
14 | AELHAHGPAAFVDYFERNWEPRRD [ZSWIM9] | 3.89 ± 0.3 | 4.07 ± 0.23 | – | –
15 | AEQEALTGECKELEKKNEALKERA [ATF4] | 5.3 ± 0.28 | 5.28 ± 0.27 | – | –
16 | AERLEVSVDGLTLSPDPEERPGAE [ACBD3] | 5.29 ± 0.45 | 5.56 ± 0.3 | – | –
17 | AEVSWEPGRREGCDICAGKAGCPI [RPS21] | 3.29 ± 0.31 | 3.89 ± 0.26 | – | –
18 | AEVVKIRDSFSNQNTETKDTKSR [DLC1] | – | – | 2.89 ± 0.56 | 3.47 ± 0.74
19 | AFASTCLLSRFSVGIFHLMQIAVP [TMEM175] | 3.02 ± 0.29 | 3 ± 0.22 | – | –
20 | AFFKRTIQGNIEYSCPATNECEIT [ESRRG] | 3.11 ± 0.25 | 3.23 ± 0.27 | – | –
21 | AFSQAISAIQALRSSVSRVFDCLK [MED27] | 3.69 ± 0.36 | 3.41 ± 0.15 | – | –
22 | AGFAQLTHLLMGLAGGKLILSLEG [HDAC6] | 3.56 ± 0.82 | 3.05 ± 0.82 | – | –
23 | AGGDVPHKTHQAPASASSLPGTGA [DYRK1B] | 4.89 ± 0.099 | 4.87 ± 0.28 | – | –

Row | Sequence | protein stability index [1] | protein stability index [2] | protein stability index [3] | protein stability index [4]
24 | AGGTSDDPEPSGPHLPRVMLPGVL [SCNN1D] | 4.14 ± 0.21 | 4.16 ± 0.13 | – | –
25 | AGILSNLTCNNYKNKMMVCQVGGI [CTNNB1] | 2.17 ± 0.3 | 2.11 ± 0.37 | – | –
26 | AGLEDEDVIIEVNGVNVLDEPYEK [PDZK1] | 5.05 ± 0.35 | 5 ± 0.27 | – | –
27 | AHELGHSLGLSHSTDIGALMYPSY [MMP1] | 3.14 ± 0.18 | 2.9 ± 0.14 | – | –
28 | AHRIAAQTLLGTAKMLLHEGQHPA [PYCR3] | 2.97 ± 0.31 | 2.95 ± 0.42 | – | –
29 | AILFTRQDLCGVSTCDTLGMADVG [ADAMTS4] | 1.8 ± 0.28 | 2.66 ± 0.22 | – | –
30 | AIMNALIEAGAHMDATNAFKKTAY [FEM1A] | 2.51 ± 0.39 | 2.11 ± 0.35 | – | –
31 | AIPYLEHIIHVWEETGSRFHNCLI [VPS39] | 2.31 ± 0.4 | 2.36 ± 0.54 | – | –
32 | AKLGTQAEKDRRLKKKHQLLEDAR [PPFIA4] | 4.26 ± 0.37 | 4.44 ± 0.1 | – | –
33 | AKVDGETASDSESRAESAPLPVSA [CDS2] | 5.57 ± 0.15 | 5.5 ± 0.27 | – | –
34 | ALAVKAGHGYDSKKQQELTAAVLG [ZBED1] | 3.82 ± 0.24 | 3.87 ± 0.25 | – | –
35 | ALDKQHSRDSAAITHSTYSLPASS [NOL4L] | 4.57 ± 0.065 | 4.5 ± 0.065 | – | –
36 | ALIICYNWLHRRLAGQFLEELRKF [MOG] | 2.64 ± 0.65 | 2.47 ± 0.57 | – | –
37 | ALKYWKKAMNMRYSDRTNIISKPV [FEM1C] | 2.5 ± 0.52 | 2.28 ± 0.31 | – | –
38 | ALPIATAFTEYVHAYFRGHSPSCL [FCHO1] | 2.73 ± 0.55 | 2.78 ± 0.57 | – | –
39 | ALTRLERHLERKAWVANFERPRMN [CRY1] | 2.42 ± 0.048 | 2.66 ± 0.6 | – | –
40 | ANETYENNFDNLDFDLDLVPWESD [ATF6] | 5.07 ± 0.24 | 4.82 ± 0.23 | – | –
41 | ANPYWTSRGSSVSMSGGRFRCPTC [TRIM63] | 2.65 ± 0.47 | 3.1 ± 0.4 | – | –
42 | APELLGGAEPGTYLTGTINGDPES [ADAMTS4] | 5.73 ± 0.28 | 5.51 ± 0.36 | – | –
43 | APNSLSAPTMLHNSSGDFSQAHST [TRAF3IP2] | 4.84 ± 0.14 | 4.78 ± 0.28 | – | –
44 | APRTSSCAERLQSEEQVSKNLFGP [FCHO1] | 4.21 ± 0.17 | 4.17 ± 0.31 | – | –
45 | AQKTALLQDGRRKVHYLFPDGKEM [DPCD] | 3.29 ± 0.22 | 3.62 ± 0.23 | – | –
46 | ARKAMRNGISPIIIDNTNLHAWEM [N4BP2L1] | 2.33 ± 0.25 | 2.25 ± 0.42 | – | –

Row | Sequence | protein stability index [1] | protein stability index [2] | protein stability index [3] | protein stability index [4]
47 | ARYGHLDMVEFLLEQCSASIEVGG [FEM1C] | 2.48 ± 0.5 | 2.14 ± 0.36 | – | –
48 | ASAAARLGCNRQSWCLKRYDLEYW [TRIM14] | 2.29 ± 0.7 | 1.86 ± 0.27 | – | –
49 | ASALTLVLGGRRLRRAWFSWPRAS [SCNN1D] | 2.13 ± 0.39 | 2.05 ± 0.28 | – | –
50 | ASCSKNCTNSPAIVRFSGQSRGVP [FBXO34] | 3.68 ± 0.27 | 3.63 ± 0.25 | – | –
51 | ASDYFKAMFTGGMKEQDLMCIKLH [KLHL13] | 2.13 ± 0.17 | 2.13 ± 0.25 | – | –
52 | ASIQNHVRKREAPAPEAESKQTEK [EFHC1] | 5.36 ± 0.28 | 5.32 ± 0.37 | – | –
53 | ASQSLGSPMYFFLASLSFIDTVYS [OR4A15] | 2.89 ± 0.57 | 2.67 ± 0.96 | – | –
54 | ATDYLRYKPVVLLQGLSLIVTWFM [SLC19A2] | 2.35 ± 0.12 | 2.42 ± 0.19 | – | –
55 | ATFSGFKKEQRRLGIPKNPWLWSE [ETS2] | 2.28 ± 0.18 | 2.57 ± 0.52 | – | –
56 | ATRSTTQSNRTSRLIGKKMNRSVS [WEE1] | 4.27 ± 0.28 | 4.21 ± 0.3 | – | –
57 | AVFMWPGKDSRWLPSLVLARLVFV [SLC29A1] | 3.25 ± 0.68 | 2.67 ± 0.34 | – | –
58 | AVPKFMKRIKVPDYKDRSVFGVPL [DLC1] | 2.33 ± 0.15 | 2.4 ± 0.25 | – | –
59 | CAFLLLRLLVGLALATLRVLRGLA [TMEM175] | 3.56 ± 0.37 | 3.35 ± 0.086 | – | –
60 | CAIQMFSFLFLGCSHSFLLAVMGY [OR10K2] | 3.41 ± 0.14 | 3.46 ± 0.37 | – | –
61 | CEKTFNRKDHLKNHLQTHDPNKMA [PLAGL1] | 4.31 ± 0.26 | 4.42 ± 0.16 | – | –
62 | CGCGSFCRLGYGCGYEGCRYGCGH [KRTAP19-2] | 2.55 ± 0.44 | 2.62 ± 0.46 | – | –
63 | CGRAFSRKSLLVVHQRTHTGEKPH [ZNF649] | 2.69 ± 0.26 | 2.64 ± 0.093 | – | –
64 | CGRRGIKVWSLTGQVAEDRFPESH [TLE6] | 2.79 ± 0.27 | 3.11 ± 0.16 | – | –
65 | CHLFSTYVASHKIEKEEQEKKRKE [ACBD3] | 4.41 ± 0.41 | 4.43 ± 0.21 | – | –
66 | CHSESGKSRLVQLPPVAVRSLQDL [PCMTD2] | 3.44 ± 0.33 | 3.28 ± 0.28 | – | –
67 | CKKLHIPLKAQNDLDISRIKRGNT [P2RY14] | 3.44 ± 0.33 | 3.65 ± 0.14 | – | –
68 | CLDTIDKSTMDAISAEGFTDIDID [BTBD1] | 4.88 ± 0.19 | 4.82 ± 0.22 | – | –
69 | CMWSKKCSGVACLVKDNPQRSYFL [WASL] | 2.26 ± 0.29 | 2.04 ± 0.27 | – | –

Row | Sequence | protein stability index [1] | protein stability index [2] | protein stability index [3] | protein stability index [4]
70 | CPEVKLKTTGLEEAAEAETAKDNG [SRPK2] | 5.5 ± 0.27 | 5.49 ± 0.26 | – | –
71 | CQRERAFSVKFEVQAPRWGNPRAL [OAS1] | 2.46 ± 0.12 | 2.8 ± 0.27 | – | –
72 | CRALRDPALDSLAYEYEREGLYEQ [TRADD] | 3.73 ± 0.34 | 3.63 ± 0.18 | – | –
73 | CRREAFRRLGNGVSDDLSSEEDGE [PHTF1] | 4.94 ± 0.19 | 4.77 ± 0.13 | – | –
74 | CSQHWGGMASFRFPETTFISVTAY [TBX6] | 3.18 ± 0.6 | 2.85 ± 0.47 | – | –
75 | CTACGSVLEDNIIVSEVQFVESSG [BRF1] | 3.42 ± 0.57 | 3.74 ± 0.35 | – | –
76 | CTLGICGQGLKSYMTKPSKSLLPH [RTP4] | 2.2 ± 0.3 | 2.21 ± 0.35 | – | –
77 | CVLRCSVLEIEQSMNRVKNISDAD [FEM1B] | 2.58 ± 0.37 | 2.83 ± 0.24 | – | –
78 | CWLNAFAEMLRFGDRMFYRDWWNS [SOAT2] | 2.47 ± 0.4 | 2.91 ± 0.16 | – | –
79 | CYSEEITVCGDLHGQLDDLIFIFY [PPEF2] | 2.96 ± 0.43 | 2.65 ± 0.46 | – | –
80 | CYYCQAYVHHQALLDVKNIAHQNK [HDAC6] | 2.61 ± 0.33 | 2.33 ± 0.48 | – | –
81 | DAAGHGFCYCAGSHKRKRSSGSFC [GMCL1] | 3.08 ± 0.22 | 3.35 ± 0.15 | – | –
82 | DAEVSCTDNGTFNLSRGQTPLTEG [RETREG3] | 5.2 ± 0.25 | 5.32 ± 0.1 | – | –
83 | DDGIKVVKVTFNKQDSLVILTIMA [TMEM106C] | 2.71 ± 1 | 3.11 ± 1 | – | –
84 | DDIARIYQPKRYALSPKTTITMAH [FAM98B] | 2.77 ± 0.21 | 2.92 ± 0.17 | – | –
85 | DDPENKKTSSSSKAGFTASPFTNL [CDC14A] | 4.92 ± 0.27 | 4.95 ± 0.14 | – | –
86 | DDSGGPTPSSYAPSHPPRPLLPLD [ZBTB22] | 4.54 ± 0.25 | 4.79 ± 0.22 | – | –
87 | DEEERRRRVFDVPIRRRRCSRLF [FBXO3] | – | – | 3.32 ± 0.61 | 3.73 ± 0.82
88 | DEIEEVPTTSHRLSRHDKAVQRFC [NETO1] | 4.78 ± 0.18 | 4.68 ± 0.1 | – | –
89 | DENEDVNFDHFEILRAIGKGSFGK [STK32A] | 4.22 ± 0.18 | 4.14 ± 0.17 | – | –
